Molecular target: calreticulin (canine pancreas microsomes) (dog (endogenous in canine pancreas microsomes)) (UniProt P28490)
Assay: co-IP

Question: Which reduction in binding against wild-type HA does the source give for “HA glycosylation mutant Δ483 (natural protein)” here?
Answer: 40%

From publication PMC2141715
